Results: patent US20230212587A1, “Mutant Hydroxyphenylpyruvate Dioxygenase Polypeptide, Encoding Gene Thereof and Use Therefor” (Beijing Dabeinong Biotechnology Co., Ltd., priority 2019, published 2023)
Substitutions are numbered along the chain they refer to. Names may count otherwise.

B1: S1HPPD-02: native Solanum lycopersicum HPPD, SEQ ID NO: 129 (protein)
chain: MGKQAAAAADDQQLPGDIEDKFKLVGFNHFVRTNPRSDFFTVKRFHHIEFWCGDATNTARRFSWGLGLPIAAISDLSTGNSVHASYLLRSSSSSQLQFLFTAPYSSAISTSSSASIPTFSVSSHRSFTATHGLGVRAIALEVENSRLAFSTCVAHGAKPVSEPVILNDEVVIAEVHLYGDVVLRFVSFLKDSNCFVFLPGFESVEGAQLDYGIRRLDHAVGNVPELGPVVEYIKSFTGFHEFAEFTAEDVGTAESGLNSVVLANNDETVLFPLNEPVYGTKRKSQIQTYLEHNEGAGVQHLALVTEDIFRTLREMRKRSGIGGFEFMPSPPPTYYKNLKTRAGDILSDEQIQECEELGILVDRDDQGTLLQIFTKPVGDRPTIFLEIIQRIGCMLKNEEGELYQKGGCGGFGKGNFSELFKSIEEYEKTLEAKQNTQVAIA
modifications: SlHPPD Amino Acid Sequence (Solanum lycopersicum)
B2: S1HPPDm-F372A-02: Solanum lycopersicum HPPD mutant F372A, SEQ ID NO: 132 (protein)
chain: B1 chain with F373A
modifications: SlHPPDm-F372A Amino Acid Sequence
B3: AhHPPD-02: native Arachis hypogaea HPPD, SEQ ID NO: 135 (protein, listed as Arachis hypogaea)
chain: MATAYTYAHAVTYCNSQHNPPIIPILSTNQHPPRVTLPSSIPHFISTITTFNLKHFPSHSLHTVMVTQTQQNAPSSSPELGFKLVGFKNFVRTNPKSDRFKVIRFHHVEFWCTDATNTASRFSWGLGMPIVAKSDLSTGNAVHASYLLRSGDLNFLFSAPYSASIAGDGASASFPSFSASDCHSFAAKHGLAVRAVAIEVEDASAAFSASVANGAKPVSPAVLLDNSVGFAEVHLYGDVVLRYISYSAPTRESNLNPTLRFLPGFEAVEADSSFPELDYGIRRLDHAVGNVPELAPAVNYLKKFTGFHEFAEFTAEDVGTSESGLNSVVLASNDEMVLLPLNEPVYGTKRKSQIETYLEHNEGAGLQHLALVSEDIFRTLREMRKRSTIGGFQFMPSPPPTYYRNLKKRAGDVLSDEQIKECEELGILVDRDDQGTLLQIFTKPVGDRPTIFIEIIQRIGCMLKDEEGKVYQKGGCGGFGKGNFSELFKSIEEYEKTLESRRTA
modifications: AhHPPD Amino Acid Sequence
B4: AhHPPDm-F372A-02: Arachis hypogaea HPPD mutant F372A, SEQ ID NO: 138 (protein)
chain: B3 chain with F441A
modifications: AhHPPDm-F372A Amino Acid Sequence
B5: N1HPPD-02: native Sphingobium sp. N1 HPPD, SEQ ID NO: 147 (protein)
chain: MAADSENPLGLHGFAFAEFTSPDPAAMARQFEQLGFVPAARRKDRGLTLYRQGRIAFILNAGEGEQASAFRAAHGPSANGMAFNVADAKAAHRHAIQSGATDADTAQSALPGTYAIEGIGDSLLYLVDSDPFADWDEVPGWREASAERGVGLDLLDHLTHNVRRGQMRVWSEFYATLFGFEEQKFFDIKGQATGLFSQAMIAPDHEIRIPLNESQDDNSQIEEFIREYNGEGIQHLALTTPDIYSTVEKLRANGVRLQDTIDTYYDLVDERVPGHGEDLARLRKNRILIDGDVHDEGLLLQIFTETMFGPIFFEIIQRKGNEGFGNGNFQVLYESIELDQIRRGVVTVDA
modifications: N1HPPD Amino Acid Sequence (Sphingobacterium)
B6: CyHPPD-02: native Cyanobacteria HPPD, SEQ ID NO: 141 (protein)
chain: MEFDYLHLYVDDYQSAHRCYQRQWGFTCVNKIITDQGITGIYQQGQILLLISASESSLSRYADYLQKHPPGVGEVAWQVANWQKIQHQLSELQIETTPVIHPLTKAEGLTFLLWGDVHHSIYPVRSELNQNKTLHGVGLTTIDHVVLNIAADQFTQASQWYQQVFGWSVQQSFTVNTPHSGLYSEALASANGKVQFNLNCPTNNSSQIQTFLANNHGAGIQHVAFSTTSITRTVAHLRERGVNFLKIPTGYYQQQRNSSYFNYASLDWDTLQCLEILLDDQDNTGERLLLQIFSQPCYGVGTLFWEIIERRHRAKGFGQGNFQALYEAVETLEKQLEVP
modifications: CyHPPD Amino Acid Sequence (Cyanobacteria)
B7: CyHPPDm-F372A-02: Cyanobacteria HPPD mutant F372A, SEQ ID NO: 144 (protein)
chain: B6 chain with F293A
modifications: CyHPPDm-F372A Amino Acid Sequence

Test system: Arabidopsis thaliana T1 plants
Test: Topramezone tolerance of transgenic Arabidopsis thaliana T1 plants (pesticide damage grade by bleached leaf area, score, resistance evaluation)
Type: in vivo
Details: HPPDs from different species; number of plants (of 16) in this grade; topramezone 25 g ai/ha (1x), 7 DAT
How it was run: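 Herbicide tolerance was judged per plant on a bleaching scale (grade 0 no bleaching to grade 3 fully bleached) 7 DAT. Topramezone doses were 0, 25, 50 and 100 g ai/ha on 18-day-old T1 and wild-type plants.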

First: B1
Second: B2
The “Classification and statistics of pesticide damage grade Grade 0” value of the first is lower: 0 for the first, 1 for the second.

Going from B3 to B4, the “Classification and statistics of pesticide damage grade Grade 0” value rises from 0 to 2.

Going from B5 to B6, the “Classification and statistics of pesticide damage grade Grade 0” value falls from 2 to 0.

In the case of B7, the “Classification and statistics of pesticide damage grade Grade 0” value is reported as 1.

Going from B1 to B2, the “Classification and statistics of pesticide damage grade Grade 1” value rises from 0 to 1.

Going from B3 to B4, the “Classification and statistics of pesticide damage grade Grade 1” value rises from 0 to 12.

First: B5
Second: B6
The “Classification and statistics of pesticide damage grade Grade 1” value of the first is higher: 12 for the first, 0 for the second.

With B7 the “Classification and statistics of pesticide damage grade Grade 1” value was 14.

Compared with B1, B2 is higher in “Classification and statistics of pesticide damage grade Grade 2” value: 0 for the first, 14 for the second.

First: B3
Second: B4
The “Classification and statistics of pesticide damage grade Grade 2” value of the first is lower: 0 for the first, 2 for the second.

Compared with B5, B6 is lower in “Classification and statistics of pesticide damage grade Grade 2” value: 1 for the first, 0 for the second.

For B7, the “Classification and statistics of pesticide damage grade Grade 2” value was 1.

Going from B1 to B2, the “Classification and statistics of pesticide damage grade Grade 3” value falls from 16 to 0.

Going from B3 to B4, the “Classification and statistics of pesticide damage grade Grade 3” value falls from 16 to 0.

Compared with B5, B6 is lower in “Classification and statistics of pesticide damage grade Grade 3” value: 1 for the first, 0 for the second.

B7 was tested, and the “Classification and statistics of pesticide damage grade Grade 3” value was 0.

Same assay, conditions: HPPDs from different species; number of plants (of 16) in this grade; topramezone 100 g ai/ha (4x), 7 DAT

B1 and B2 are the same in “Classification and statistics of pesticide damage grade Grade 0” value: 0 for the first, 0 for the second.

B3 and B4 are the same in “Classification and statistics of pesticide damage grade Grade 0” value: 0 for the first, 0 for the second.

B5 and B6 are the same in “Classification and statistics of pesticide damage grade Grade 0” value: 0 for the first, 0 for the second.

With B7 the “Classification and statistics of pesticide damage grade Grade 0” value was 0.

Going from B1 to B2, the “Classification and statistics of pesticide damage grade Grade 1” value rises from 0 to 1.

B3 and B4 are the same in “Classification and statistics of pesticide damage grade Grade 1” value: 0 for the first, 0 for the second.

Compared with B5, B6 is lower in “Classification and statistics of pesticide damage grade Grade 1” value: 4 for the first, 0 for the second.

In the case of B7, the “Classification and statistics of pesticide damage grade Grade 1” value is reported as 1.

Going from B1 to B2, the “Classification and statistics of pesticide damage grade Grade 2” value rises from 0 to 4.

First: B3
Second: B4
The “Classification and statistics of pesticide damage grade Grade 2” value of the first is lower: 0 for the first, 10 for the second.

Compared with B5, B6 is lower in “Classification and statistics of pesticide damage grade Grade 2” value: 8 for the first, 0 for the second.

For B7, the “Classification and statistics of pesticide damage grade Grade 2” value was 15.

First: B1
Second: B2
The “Classification and statistics of pesticide damage grade Grade 3” value of the first is higher: 16 for the first, 11 for the second.

Compared with B3, B4 is lower in “Classification and statistics of pesticide damage grade Grade 3” value: 16 for the first, 6 for the second.

Compared with B5, B6 is lower in “Classification and statistics of pesticide damage grade Grade 3” value: 4 for the first, 0 for the second.

In the case of B7, the “Classification and statistics of pesticide damage grade Grade 3” value is reported as 0.

Same assay, conditions: HPPDs from different species; score for pesticide damage 0-100; topramezone 25 g ai/ha (1x), 7 DAT

First: B1
Second: B2
The Scores of the first is higher: 100 for the first, 60 for the second.

Going from B3 to B4, the Scores falls from 100 to 33.

Going from B5 to B6, the Scores falls from 35 to 16.

Molecule B7 has a Scores of 33.

Same assay, conditions: HPPDs from different species; score for pesticide damage 0-100; topramezone 100 g ai/ha (4x), 7 DAT

Compared with B1, B2 is lower in Scores: 100 for the first, 88 for the second.

Compared with B3, B4 is lower in Scores: 100 for the first, 79 for the second.

Compared with B5, B6 is lower in Scores: 67 for the first, 16 for the second.

B7 showed a Scores of 65.

Same assay, conditions: HPPDs from different species; topramezone 25 g ai/ha (1x), 7 DAT

B1 was tested, and the Resistance evaluation was “non-resistant (non-resistant plants (scores 68-100))”.
B2 was tested, and the Resistance evaluation was “poorly resistant (poorly resistant plants (scores 34-67))”.
In the case of B3, the Resistance evaluation is reported as “non-resistant (non-resistant plants (scores 68-100))”.
B4 was tested, and the Resistance evaluation was “moderately resistant (moderately resistant plants (scores 16-33))”.
With B5 the Resistance evaluation was “poorly resistant (poorly resistant plants (scores 34-67))”.
For B6, the Resistance evaluation was “non-resistant (non-resistant plants (scores 68-100))”.
In the case of B7, the Resistance evaluation is reported as “moderately resistant (moderately resistant plants (scores 16-33))”.

Same assay, conditions: HPPDs from different species; topramezone 100 g ai/ha (4x), 7 DAT

For B1, the Resistance evaluation was “non-resistant (non-resistant plants (scores 68-100))”.
For B2, the Resistance evaluation was “non-resistant (non-resistant plants (scores 68-100))”.
B3 was tested, and the Resistance evaluation was “non-resistant (non-resistant plants (scores 68-100))”.
With B4 the Resistance evaluation was “non-resistant (non-resistant plants (scores 68-100))”.
B5 was tested, and the Resistance evaluation was “poorly resistant (poorly resistant plants (scores 34-67))”.
For B6, the Resistance evaluation was “non-resistant (non-resistant plants (scores 68-100))”.
With B7 the Resistance evaluation was “poorly resistant (poorly resistant plants (scores 34-67))”.
